The values that follow come from article doi:10.1101/2023.11.30.569340.

The target of test [1] is EEEV PE6 virus-like particle (VLP) (Eastern equine encephalitis virus, strain PE6). Description: BLI.
Test [2] concerns the target EEEV E2 domain B (Eastern equine encephalitis virus). The test can be described thus: BLI.

In test [1], VLDLR LA2-3-Fc (Fc fusion) showed a Kd of 1800 nM.

Consider S. vulgaris VLDLR LA1-8-Fc (Fc fusion), for which the Kd in test [1] came out at 11 nM.

In test [1], VLDLR LA4-5-Fc (Fc fusion) displayed a Kd of 11900 nM.

VLDLR LA3-6-Fc (Fc fusion): the dissociation constant (Kd) in test [1] worked out at 71.5 nM.

In turn, VLDLR LA2-5-Fc (Fc fusion) came in with a Kd in test [1] of 42.5 nM.

VLDLR LA3-5-Fc (Fc fusion) returned a Kd in test [1] of 32.3 nM.

Turning to VLDLR LA1-2-Fc (Fc fusion), the Kd in test [1] worked out at 505 nM.

Take VLDLR LA5-6-Fc (Fc fusion): the Kd in test [1] was determined as 4200 nM.

The substance VLDLR LA1-3-Fc (Fc fusion) gave a Kd in test [1] of 363 nM.

With VLDLR LA2-4-Fc (Fc fusion), the dissociation constant (Kd) in test [1] turned out to be 1100 nM.

Regarding VLDLR LA1-8-Fc (Fc fusion), the results for the Kd in test [2] and in test [1] were 1400 nM and 2.9 nM, respectively.

In turn, VLDLR LA4-6-Fc (Fc fusion) came in with a dissociation constant (Kd) in test [1] of 2300 nM.

In test [1], VLDLR LA3-4-Fc (Fc fusion) returned a Kd of 3900 nM.

The term Kd denotes the concentration at which binding is half-saturated. A low value points to tighter binding.
